From US20220332804A1 (CSL INNOVATION, published 2022)
Residue numbers refer to the chain shown, from its start.

Columns and labels:
Experiment in all cases: SPR, KD relative to WT C2;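 also: biacore SPR at 37 °C, anti-C2 mAbs captured on anti-human IgG chips with alanine or serine point mutants of C2 as analyte, KD from 1:1 fit compared with wild-type C2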
human C2 D282A = target: T1, human C2 D282A (human, UniProt P06681 21-752)
T1 sequence: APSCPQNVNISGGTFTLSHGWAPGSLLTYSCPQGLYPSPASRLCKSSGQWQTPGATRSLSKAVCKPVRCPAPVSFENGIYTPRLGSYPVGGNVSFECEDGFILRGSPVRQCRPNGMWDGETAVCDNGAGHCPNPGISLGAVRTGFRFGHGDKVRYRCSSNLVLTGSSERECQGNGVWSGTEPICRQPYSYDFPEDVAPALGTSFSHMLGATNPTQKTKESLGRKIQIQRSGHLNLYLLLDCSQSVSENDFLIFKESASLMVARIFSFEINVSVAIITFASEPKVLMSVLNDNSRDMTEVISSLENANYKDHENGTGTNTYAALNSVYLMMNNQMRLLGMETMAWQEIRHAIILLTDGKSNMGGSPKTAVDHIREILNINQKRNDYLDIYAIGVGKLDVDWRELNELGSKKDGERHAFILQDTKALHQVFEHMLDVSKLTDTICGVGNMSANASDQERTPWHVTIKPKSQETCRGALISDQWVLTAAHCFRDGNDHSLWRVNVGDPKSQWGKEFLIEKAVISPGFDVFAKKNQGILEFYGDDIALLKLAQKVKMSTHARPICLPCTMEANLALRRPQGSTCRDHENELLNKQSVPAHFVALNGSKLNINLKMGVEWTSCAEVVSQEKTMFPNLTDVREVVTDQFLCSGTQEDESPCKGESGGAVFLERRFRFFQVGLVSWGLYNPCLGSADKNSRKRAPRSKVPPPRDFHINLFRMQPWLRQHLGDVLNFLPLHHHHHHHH

human C2 E686A = target: T2, human C2 E686A (human, UniProt P06681 21-752)
T2 sequence: T1 sequence with A262D, E666A

human C2 D419A = target: T3, human C2 D419A (human, UniProt P06681 21-752)
T3 sequence: T1 sequence with A262D, D399A

human C2 V448A = target: T4, human C2 V448A (human, UniProt P06681 21-752)
T4 sequence: T1 sequence with A262D, V428A

B1: RF16-242 (antibody, human IgG4 S228P, lambda, V domains shown)
VH: EVQLLQSGAEVKKPGESLKISCKGSGYSFTSYWIGWVRQMPGKGLEWMGIIYPGDSDTRYSPSFQGQVTISADKSISTAYLQWSSLKASDTAMYYCARRGHYGDYFDYWGQGTLVTVSS
VL: SYELTQPPSVSVSPGQTARITCSGDALPKKYAYWYHQKSGQAPVLVIYEDRRRPSEIPERFSGSSSGTMATLTITGAQVEDEGVYFCYSRDRAGNQRVFGGGTQLTVLG
notes: pH-dependent anti-C2 antibody from a phage display library
B1 was tested. Which Fold diff (human C2 D282A) did it give?
Its Fold diff is 1 fold.

And the Fold diff (human C2 E686A)?
The Fold diff was 5 fold.

What about the Fold diff (human C2 D419A) of the same binder?
The Fold diff was 2 fold.

What about the Fold diff (human C2 V448A) of the same binder?
Its Fold diff is 1 fold.
